Measured values published in FireProtDB (doi:10.1073/pnas.0911904107).

B1: Lipid A palmitoyltransferase PagP, P37001 (parent)
chain: MNVSKYVAIFSFVFIQLISVGKVFANADEWMTTFRENIAQTWQQPEHYDLYIPAITWHARFAYDKEKTDRYNERPWGGGFGLSRWDEKGNWHGLYAMAFKDSWNKWEPIAGYGWESTWRPLADENFHLGLGFTAGVTARDNWNYIPLPVLLPLASVGYGPVTFQMTYIPGTYNNGNVYFAWMRFQF

Variants of: B1
Details: Escherichia coli (strain K12), pH 8, 25 °C, Urea, CD, structure 1THQ, whole UniProt chain shown
[1] = Sodium phosphate 50 mM, reversible: Yes
[2] = sodium phosphate buffer, transition: 2, reversible: yes

Variant	ddG of mutation (higher = less stable) [1] [kJ/mol]	denaturant midpoint (higher = more stable) [1] [M]	unfolding free energy [1] [kJ/mol]	ddG of mutation (higher = less stable) [2] [kJ/mol]	denaturant midpoint (higher = more stable) [2] [M]	unfolding free energy [2] [kJ/mol]	denaturant m value [1] [kcal/mol/M]
T133A	1.67	8.52	58.5	24.5	8.52	35.6	
Y178A	2.3	8.43	57.8	24.9	8.43	35.3	
Q164A	4.06	8.18	56.1	25.9	8.18	34.2	
M182A	3.22	8.3	56.9				
L130A	3.18	8.3	57	25.4	8.3	34.7	
Y112F	5.73	7.93	54.4	27	7.93	33.2	
Y112G				25.7	8.24	34.5	
M97A	1.42	8.56	58.7	24.4	8.56	35.8	
D49N	2.51	8.4	57.6	25	8.4	35.1	
S83A	5.27	8.01	54.9	26.7	8.01	33.5	
S155A	5.31	8	54.9	26.7	8	33.5	
F80A	4.39	8.13	55.8	26.2	8.13	34	
Y48A	3.81	8.22	56.4	25.8	8.22	34.4	
T162A	2.13	8.46	58	24.8	8.46	35.4	
Q185A	-0.753	8.88	60.9	23	8.88	37.2	1.64
W42A				26	8.17	34.2	
E115A	2.76	8.37	57.4	25.1	8.37	35	
W76A	1.88	8.5	58.3	24.6	8.5	35.6	
A110G	3.64	8.24	56.5				
R119A	6.4	7.84	53.8	27.4	7.84	32.8	
